Results on 19 variants are retold here after IntAct's records for PubMed 27918561.

First the molecules themselves.
B1: Negative regulator of P-body association (Homo sapiens), A0A0U1RRE5 (parent)
chain: MGDQPCASGRSTLPPGNAREAKPPKKRCLLAPRWDYPEGTPNGGSTTLPSAPPPASAGLKSHPPPPEK
partner: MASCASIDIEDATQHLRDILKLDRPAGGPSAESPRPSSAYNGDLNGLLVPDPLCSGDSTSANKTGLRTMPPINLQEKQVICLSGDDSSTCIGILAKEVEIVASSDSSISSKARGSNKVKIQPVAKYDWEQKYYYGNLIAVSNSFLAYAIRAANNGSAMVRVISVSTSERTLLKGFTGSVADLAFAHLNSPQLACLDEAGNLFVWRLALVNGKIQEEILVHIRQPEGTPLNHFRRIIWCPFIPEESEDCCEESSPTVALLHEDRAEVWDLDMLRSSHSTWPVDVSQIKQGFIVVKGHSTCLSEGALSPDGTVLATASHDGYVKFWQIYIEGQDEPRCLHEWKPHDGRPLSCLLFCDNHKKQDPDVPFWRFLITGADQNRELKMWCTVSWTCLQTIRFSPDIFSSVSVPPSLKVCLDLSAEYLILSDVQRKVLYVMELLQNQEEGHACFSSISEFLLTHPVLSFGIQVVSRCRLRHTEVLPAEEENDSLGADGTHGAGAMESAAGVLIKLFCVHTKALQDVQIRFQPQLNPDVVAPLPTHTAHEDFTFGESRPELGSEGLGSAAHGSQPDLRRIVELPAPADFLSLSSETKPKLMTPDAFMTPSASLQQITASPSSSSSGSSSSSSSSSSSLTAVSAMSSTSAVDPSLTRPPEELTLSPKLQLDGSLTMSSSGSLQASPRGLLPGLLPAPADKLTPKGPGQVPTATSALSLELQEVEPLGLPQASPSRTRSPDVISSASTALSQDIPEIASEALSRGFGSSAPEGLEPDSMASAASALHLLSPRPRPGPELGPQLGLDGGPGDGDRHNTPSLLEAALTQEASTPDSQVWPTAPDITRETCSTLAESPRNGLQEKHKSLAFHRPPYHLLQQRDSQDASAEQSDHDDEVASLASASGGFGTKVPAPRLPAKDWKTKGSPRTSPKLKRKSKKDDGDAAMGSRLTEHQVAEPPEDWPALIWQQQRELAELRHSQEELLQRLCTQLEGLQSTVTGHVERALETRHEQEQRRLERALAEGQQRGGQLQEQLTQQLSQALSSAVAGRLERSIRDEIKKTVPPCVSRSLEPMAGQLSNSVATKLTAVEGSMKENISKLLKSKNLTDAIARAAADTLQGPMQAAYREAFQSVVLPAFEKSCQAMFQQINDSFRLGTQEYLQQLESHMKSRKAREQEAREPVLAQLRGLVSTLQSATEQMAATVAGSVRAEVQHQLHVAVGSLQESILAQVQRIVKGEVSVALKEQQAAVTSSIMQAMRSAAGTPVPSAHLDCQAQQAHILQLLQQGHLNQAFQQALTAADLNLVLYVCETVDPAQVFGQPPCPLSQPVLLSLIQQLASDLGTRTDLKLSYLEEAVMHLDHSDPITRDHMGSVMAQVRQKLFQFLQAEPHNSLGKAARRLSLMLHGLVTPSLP

The assay covers variants of B1. The conditions noted are these: with edc4_human EDC4, Q6P2E9.
For MGDQPCASGRSTLPPGNAREAKPPKKRCLLAPRWDYPEATPNGGSTTLPSAPPPASAGLKSHPPPPEK [G39A], the “effect of a mutation on the interaction” value is “with no effect”. Under MGDQPCASGRSTLPPGNAREAKPPKKRCLLAPRWDYAEGTPNGGSTTLPSAPPPASAGLKSHPPPPEK [P37A] stands “with no effect”. As to MGDQPCASGRSTLPPGNAREAKPPKKRCALAPRWDYPEGTPNGGSTTLPSAPPPASAGLKSHPPPPEK [L29A], the “effect of a mutation on the interaction” value is “with no effect”.

Turning to MGDQPCASGRSTLPPGNAREAKPPKKRCLLAPRWAYPEGTPNGGSTTLPSAPPPASAGLKSHPPPPEK [D35A], the “effect of a mutation on the interaction” value is listed as “with no effect”.

In the case of MGDQPCASGRSTLPPGNAREAKPPKARCLLAPRWDYPEGTPNGGSTTLPSAPPPASAGLKSHPPPPEK [K26A], the “effect of a mutation on the interaction” value is “with no effect”. In the case of MGDQPCASGRSTLPPGNAREAKPPKKRCLAAPRWDYPEGTPNGGSTTLPSAPPPASAGLKSHPPPPEK [L30A], the “effect of a mutation on the interaction” value is reported as “disrupting interaction strength”. For MGDQPCASGRSTLPPGNAREAKPPKKRALLAPRWDYPEGTPNGGSTTLPSAPPPASAGLKSHPPPPEK [C28A], the “effect of a mutation on the interaction” value is given as “with no effect”. For MGDQPCASGRSTLPPGNAREAKPPKKRCLLAPRWDYPEGTANGGSTTLPSAPPPASAGLKSHPPPPEK [P41A], the “effect of a mutation on the interaction” value is “with no effect”. With MGDQPCASGRSTLPPGNAREAKPPKKRCLLAARWDYPEGTPNGGSTTLPSAPPPASAGLKSHPPPPEK [P32A], the “effect of a mutation on the interaction” value is on record as “with no effect”. As to MGDQPCASGRSTLPPGNAREAKPPKKRCLLAPRWDYPAGTPNGGSTTLPSAPPPASAGLKSHPPPPEK [E38A], the “effect of a mutation on the interaction” value is “with no effect”. Take MGDQPCASGRSTLPPGNAREAKPPKKACLLAPRWDYPEGTPNGGSTTLPSAPPPASAGLKSHPPPPEK [R27A]: the “effect of a mutation on the interaction” value was “with no effect”. Under MGDQPCASGRSTLPPGNAREAKPPAKRCLLAPRWDYPEGTPNGGSTTLPSAPPPASAGLKSHPPPPEK [K25A] stands “with no effect”.

On to MGDQPCASGRSTLPPGNAREAKPPKKRCLLAPRWDAPEGTPNGGSTTLPSAPPPASAGLKSHPPPPEK [Y36A], for which the “effect of a mutation on the interaction” value is listed as “with no effect”. For the variant MGDQPCASGRSTLPPGNAREAKPPKKRCLLAPAWDYPEGTPNGGSTTLPSAPPPASAGLKSHPPPPEK [R33A], the “effect of a mutation on the interaction” value is on record as “with no effect”.

For the variant MGDQPCASGRSTLPPGNAREAKPPKKRCLLAPRWDYPEGAPNGGSTTLPSAPPPASAGLKSHPPPPEK [T40A], the “effect of a mutation on the interaction” value is given as “with no effect”. With MGDQPCASGRSTLPPGNAREAAPPKKRCLLAPRWDYPEGTPNGGSTTLPSAPPPASAGLKSHPPPPEK [K22A], the “effect of a mutation on the interaction” value is listed as “with no effect”. Regarding MGDQPCASGRSTLPPGNAREAKPPKKRCLLAPRADYPEGTPNGGSTTLPSAPPPASAGLKSHPPPPEK [W34A], the “effect of a mutation on the interaction” value is recorded as “disrupting interaction strength”.

In the case of MGDQPCASGRSTLPPGNAREAKPAKKRCLLAPRWDYPEGTPNGGSTTLPSAPPPASAGLKSHPPPPEK [P24A], the “effect of a mutation on the interaction” value was “with no effect”. Regarding MGDQPCASGRSTLPPGNAREAKAPKKRCLLAPRWDYPEGTPNGGSTTLPSAPPPASAGLKSHPPPPEK [P23A], the “effect of a mutation on the interaction” value is reported as “with no effect”.
